# Measurements published in IntAct's records for PubMed 20511297.
# B1: Fructokinase-like 1, chloroplastic (Arabidopsis thaliana (Mouse-ear cress)), Q9M394 (parent)
# chain: MASLLIFPHLHHFDSSLDRREVLVVRHSQASRRFLTPKASINGSGITNGAAAETTSKPSRKGRKKKQTSTVIEKDNTETDPELNPELADYDDGIEFPYDDPPLVCCFGAVQKEFVPVVRVHDNPMHPDMYSQWKMLQWDPPEFGRAPGGPPSNVAISHVRLGGRAAFMGKVGEDDFGDELVLMMNQERVQTRAVKFDENSKTACTRVKIKFKDGKMMAETVKEPPEDSLFASELNLAVLKEARIFHFNSEVLTSPTMQSTLFTAIQWSKKFGGLIFFDLNLPLPLWRSRNETRKLIKKAWNEANIIEVSQQELEFLLDEDYYERRRNYTPQYFAEDFDQTKNRRDYYHYTPEEIKSLWHDKLKLLVVTDGTLRLHYYTPTFDGVVIGTEDVLITPFTCDRTGSGDAVVAGIMRKLTTCPEMFEDQDVMERQLRFAVAAGIIAQWTIGAVRGFPTESATQNLKEQVYVPSMW
# partner: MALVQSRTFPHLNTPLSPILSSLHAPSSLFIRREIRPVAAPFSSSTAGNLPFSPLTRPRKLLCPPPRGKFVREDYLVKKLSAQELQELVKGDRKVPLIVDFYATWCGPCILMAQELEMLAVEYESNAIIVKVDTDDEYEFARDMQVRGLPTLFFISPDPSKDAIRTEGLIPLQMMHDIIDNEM
# B2: Thioredoxin-like protein CITRX, chloroplastic (Arabidopsis thaliana (Mouse-ear cress)), Q9M7X9 (parent)
# chain: B1 partner
# partner: B1 chain
# B3: Thioredoxin-like protein CITRX, chloroplastic (Arabidopsis thaliana (Mouse-ear cress)), Q9M7X9 (parent)
# chain: B1 partner
# partner: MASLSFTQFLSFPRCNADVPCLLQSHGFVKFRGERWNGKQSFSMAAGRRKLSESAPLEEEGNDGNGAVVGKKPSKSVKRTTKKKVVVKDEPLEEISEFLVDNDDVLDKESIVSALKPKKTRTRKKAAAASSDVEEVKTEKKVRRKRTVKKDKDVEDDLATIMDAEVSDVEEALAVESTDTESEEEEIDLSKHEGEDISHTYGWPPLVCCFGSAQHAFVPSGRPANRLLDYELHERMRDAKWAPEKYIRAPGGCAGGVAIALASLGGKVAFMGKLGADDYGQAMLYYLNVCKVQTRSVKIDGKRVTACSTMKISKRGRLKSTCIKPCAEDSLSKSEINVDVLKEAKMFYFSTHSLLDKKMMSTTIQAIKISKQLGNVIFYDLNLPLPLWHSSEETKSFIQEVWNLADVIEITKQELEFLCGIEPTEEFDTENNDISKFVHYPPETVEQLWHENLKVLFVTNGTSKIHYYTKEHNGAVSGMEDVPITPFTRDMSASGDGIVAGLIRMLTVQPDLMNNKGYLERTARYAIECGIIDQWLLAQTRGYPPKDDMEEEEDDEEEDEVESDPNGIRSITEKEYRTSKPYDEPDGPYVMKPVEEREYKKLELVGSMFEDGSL
# B4: Fructokinase-like 2, chloroplastic (Arabidopsis thaliana (Mouse-ear cress)), F4I0K2 (parent)
# chain: B3 partner
# partner: B1 partner
# Variants of: B1
# Conditions: with citrx_arath CITRX, Q9M7X9
row,effect of a mutation on the interaction,Variant
1,disrupting interaction,MASLLIFPHLHHFDSSLDRREVLVVRHSQASRRFLTPKASINGSGITNGAAAETTSKPSRKGRKKKQTSTVIEKDNTETDPELNPELADYDDGIEFPYDDPPLVASFGAVQKEFVPVVRVHDNPMHPDMYSQWKMLQWDPPEFGRAPGGPPSNVAISHVRLGGRAAFMGKVGEDDFGDELVLMMNQERVQTRAVKFDENSKTACTRVKIKFKDGKMMAETVKEPPEDSLFASELNLAVLKEARIFHFNSEVLTSPTMQSTLFTAIQWSKKFGGLIFFDLNLPLPLWRSRNETRKLIKKAWNEANIIEVSQQELEFLLDEDYYERRRNYTPQYFAEDFDQTKNRRDYYHYTPEEIKSLWHDKLKLLVVTDGTLRLHYYTPTFDGVVIGTEDVLITPFTCDRTGSGDAVVAGIMRKLTTCPEMFEDQDVMERQLRFAVAAGIIAQWTIGAVRGFPTESATQNLKEQVYVPSMW [C105A;C106S]
2,decreasing interaction,MASLLIFPHLHHFDSSLDRREVLVVRHSQASRRFLTPKASINGSGITNGAAAETTSKPSRKGRKKKQTSTVIEKDNTETDPELNPELADYDDGIEFPYDDPPLVCAFGAVQKEFVPVVRVHDNPMHPDMYSQWKMLQWDPPEFGRAPGGPPSNVAISHVRLGGRAAFMGKVGEDDFGDELVLMMNQERVQTRAVKFDENSKTACTRVKIKFKDGKMMAETVKEPPEDSLFASELNLAVLKEARIFHFNSEVLTSPTMQSTLFTAIQWSKKFGGLIFFDLNLPLPLWRSRNETRKLIKKAWNEANIIEVSQQELEFLLDEDYYERRRNYTPQYFAEDFDQTKNRRDYYHYTPEEIKSLWHDKLKLLVVTDGTLRLHYYTPTFDGVVIGTEDVLITPFTCDRTGSGDAVVAGIMRKLTTCPEMFEDQDVMERQLRFAVAAGIIAQWTIGAVRGFPTESATQNLKEQVYVPSMW [C106A]

# Variants of: B2
# Conditions: with sckl1_arath FLN1, Q9M394
row,effect of a mutation on the interaction,Variant
1,decreasing interaction,MALVQSRTFPHLNTPLSPILSSLHAPSSLFIRREIRPVAAPFSSSTAGNLPFSPLTRPRKLLCPPPRGKFVREDYLVKKLSAQELQELVKGDRKVPLIVDFYATWSGPCILMAQELEMLAVEYESNAIIVKVDTDDEYEFARDMQVRGLPTLFFISPDPSKDAIRTEGLIPLQMMHDIIDNEM [C106S]

# Variants of: B3
# Conditions: with sckl2_arath FLN2, F4I0K2
row,effect of a mutation on the interaction,Variant
1,decreasing interaction,MALVQSRTFPHLNTPLSPILSSLHAPSSLFIRREIRPVAAPFSSSTAGNLPFSPLTRPRKLLCPPPRGKFVREDYLVKKLSAQELQELVKGDRKVPLIVDFYATWSGPCILMAQELEMLAVEYESNAIIVKVDTDDEYEFARDMQVRGLPTLFFISPDPSKDAIRTEGLIPLQMMHDIIDNEM [C106S]

# Variants of: B4
# Conditions: with citrx_arath CITRX, Q9M7X9
row,effect of a mutation on the interaction,Variant
1,decreasing interaction,C208A
2,decreasing interaction,C209A
3,disrupting interaction,C208A;C209A
